Measured values from US7238668B1, “Inhibition of lymphocyte adherence with CS-1-peptides and fragments thereof” (Fred Hutchinson Cancer Research Center, priority 1989, dated 2007).
Ends that are not written are not given here.

Key:
[1] = target: integrin β1 subunit (human) (UniProt P05556); experiment: cell-based or functional assay
Jurkat cells = experiment: Jurkat cell adhesion to surfaces coated with peptide-rsa conjugates; type: cell-based, human; conditions: peptide-rsa conjugate coated surfaces, 50% of total input cpm
Protocol: ^51Cr-labeled Jurkat cells ([…]) were incubated on surfaces coated with varying concentrations of peptide-rsa conjugates starting at 50 ug/ml (w/v) fragment or peptide (based on peptide not peptide-conjugate weight). […] (No adhesion=no measurable adhesion above negative controls.)
Adhesion of various hematopoetic cell lines to CS-1 (open bars; FIG. 12) or LDV minimal peptide-coated surfaces (cross-hatched bars; FIG. 12) was tested as follows: Jurkat (T lymphoblastoid), A375 (melanoma), U937 (monocytic), Ramos (B lymphoblastoid), and ST-1 (EBV transformed B lymphoblastoid) cells were allowed to adhere to CS-1-rsa or LDVPST-rsa (5 ug/ml peptide) coated surfaces for 30 min at 37° C. At the end of this time the non-adherent cells were washed off and the adherent cells were solubilized in NaOH/SDS and quantitated in a gamma counter. The results are expressed as bound counts per minute.

integrin receptor α4β1 [2] = target: T1, integrin receptor α4β1 (human, UniProt P13612 34-1032; P05556 21-798); experiment: cell-based or functional assay
T1 sequence (P13612 34-1032, form in doubt, chain 1 of 2): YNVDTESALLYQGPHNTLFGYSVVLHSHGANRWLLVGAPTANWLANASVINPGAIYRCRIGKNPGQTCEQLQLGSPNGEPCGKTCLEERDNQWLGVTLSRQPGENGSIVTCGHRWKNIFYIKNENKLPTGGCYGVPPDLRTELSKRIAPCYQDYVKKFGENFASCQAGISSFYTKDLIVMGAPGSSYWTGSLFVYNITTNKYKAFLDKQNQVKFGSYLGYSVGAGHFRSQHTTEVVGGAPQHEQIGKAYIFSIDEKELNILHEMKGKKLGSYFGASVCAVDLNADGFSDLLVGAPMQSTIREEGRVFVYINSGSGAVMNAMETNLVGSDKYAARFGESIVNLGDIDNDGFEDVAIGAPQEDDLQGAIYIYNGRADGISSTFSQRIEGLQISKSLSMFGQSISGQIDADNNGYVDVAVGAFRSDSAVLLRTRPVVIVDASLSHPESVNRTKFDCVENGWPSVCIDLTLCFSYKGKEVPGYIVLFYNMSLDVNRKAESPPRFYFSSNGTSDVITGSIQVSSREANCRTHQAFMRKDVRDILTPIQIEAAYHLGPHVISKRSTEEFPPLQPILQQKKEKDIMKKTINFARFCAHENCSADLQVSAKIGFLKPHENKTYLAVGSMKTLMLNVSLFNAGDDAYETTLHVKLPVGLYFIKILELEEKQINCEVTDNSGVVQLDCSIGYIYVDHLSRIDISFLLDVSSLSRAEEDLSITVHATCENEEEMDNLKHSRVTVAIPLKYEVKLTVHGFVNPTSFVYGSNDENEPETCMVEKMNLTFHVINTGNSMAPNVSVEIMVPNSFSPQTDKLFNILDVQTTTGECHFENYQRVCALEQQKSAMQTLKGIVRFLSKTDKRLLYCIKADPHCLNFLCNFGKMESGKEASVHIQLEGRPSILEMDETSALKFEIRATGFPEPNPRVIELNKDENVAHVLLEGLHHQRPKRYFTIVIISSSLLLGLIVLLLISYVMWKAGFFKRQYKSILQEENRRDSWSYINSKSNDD
T1 sequence (P05556 21-798, form in doubt, chain 2 of 2): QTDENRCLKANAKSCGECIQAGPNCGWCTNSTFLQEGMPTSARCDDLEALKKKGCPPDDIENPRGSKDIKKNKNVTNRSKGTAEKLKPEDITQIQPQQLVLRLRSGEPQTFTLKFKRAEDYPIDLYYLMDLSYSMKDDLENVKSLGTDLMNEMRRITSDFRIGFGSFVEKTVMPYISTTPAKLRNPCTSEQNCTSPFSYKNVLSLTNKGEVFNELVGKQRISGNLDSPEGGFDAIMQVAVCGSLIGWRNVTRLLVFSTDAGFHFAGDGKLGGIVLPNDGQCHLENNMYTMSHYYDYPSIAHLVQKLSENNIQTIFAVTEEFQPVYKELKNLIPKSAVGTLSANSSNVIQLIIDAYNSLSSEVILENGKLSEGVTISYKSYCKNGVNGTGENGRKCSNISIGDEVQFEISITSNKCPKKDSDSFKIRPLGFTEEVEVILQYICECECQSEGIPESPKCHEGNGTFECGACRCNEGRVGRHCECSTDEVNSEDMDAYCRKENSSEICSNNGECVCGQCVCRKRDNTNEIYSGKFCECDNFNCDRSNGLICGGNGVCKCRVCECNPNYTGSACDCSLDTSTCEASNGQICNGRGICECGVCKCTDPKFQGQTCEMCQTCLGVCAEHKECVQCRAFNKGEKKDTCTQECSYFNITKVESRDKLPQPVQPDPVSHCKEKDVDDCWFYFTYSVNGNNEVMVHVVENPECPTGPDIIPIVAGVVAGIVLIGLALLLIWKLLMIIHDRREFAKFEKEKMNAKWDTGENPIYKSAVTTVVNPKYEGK

integrin receptor α4β1 [3] = target: T1, integrin receptor α4β1; experiment: soluble peptide against 51Cr-Jurkat adhesion to plasma fibronectin (5 ug/ml coat); 50% inhibition point read from plot
Protocol: For these experiments in Table XIII ^51Cr-labeled Jurkat cells (10^5/well) were incubated in the presence of the varying concentrations (starting at 2 mg/ml) of the indicated peptides for 15 min.

integrin receptor α4β1 [4] = target: T1, integrin receptor α4β1; experiment: cell-based or functional assay; remark: listed apart in the source
integrin α5β1 = integrin α5β1 (human, UniProt P08648 42-1049; P05556 21-798); experiment: cell-based or functional assay
Sequence of integrin α5β1 (P08648 42-1049, chain 1 of 2): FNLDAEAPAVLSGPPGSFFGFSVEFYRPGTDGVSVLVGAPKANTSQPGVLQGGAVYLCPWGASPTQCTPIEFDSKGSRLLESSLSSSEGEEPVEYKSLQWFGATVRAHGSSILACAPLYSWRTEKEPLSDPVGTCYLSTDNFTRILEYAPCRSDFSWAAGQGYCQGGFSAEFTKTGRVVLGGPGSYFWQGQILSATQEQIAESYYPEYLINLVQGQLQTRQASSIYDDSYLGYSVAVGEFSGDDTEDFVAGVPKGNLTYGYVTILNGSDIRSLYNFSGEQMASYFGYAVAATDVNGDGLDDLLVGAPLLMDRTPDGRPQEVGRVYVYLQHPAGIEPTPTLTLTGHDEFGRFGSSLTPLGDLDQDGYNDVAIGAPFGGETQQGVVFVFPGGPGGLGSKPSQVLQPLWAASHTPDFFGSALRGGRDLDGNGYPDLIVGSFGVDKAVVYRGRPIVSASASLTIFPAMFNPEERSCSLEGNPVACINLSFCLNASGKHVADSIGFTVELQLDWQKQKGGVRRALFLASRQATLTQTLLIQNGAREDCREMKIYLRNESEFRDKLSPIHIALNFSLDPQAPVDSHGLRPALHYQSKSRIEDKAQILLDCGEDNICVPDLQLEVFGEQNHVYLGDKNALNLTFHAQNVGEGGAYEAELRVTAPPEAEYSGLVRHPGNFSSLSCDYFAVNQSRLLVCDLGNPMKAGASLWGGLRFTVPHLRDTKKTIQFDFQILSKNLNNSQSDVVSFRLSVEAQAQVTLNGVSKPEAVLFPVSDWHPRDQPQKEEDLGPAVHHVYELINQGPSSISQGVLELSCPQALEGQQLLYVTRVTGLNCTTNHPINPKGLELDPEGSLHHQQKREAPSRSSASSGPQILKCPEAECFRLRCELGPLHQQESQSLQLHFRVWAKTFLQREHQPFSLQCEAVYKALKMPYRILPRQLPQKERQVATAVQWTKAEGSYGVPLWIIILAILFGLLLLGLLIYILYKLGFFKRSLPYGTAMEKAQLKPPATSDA
Sequence of integrin α5β1 (P05556 21-798, chain 2 of 2): as the sequence (P05556 21-798, form in doubt, chain 2 of 2) above

Sequence of integrin β1 subunit (human) (P05556 21-798): as the sequence (P05556 21-798, form in doubt, chain 2 of 2) above

monoclonal antibody 8A2
concentration of 8A2 able to stimulate increased avidity of a low avidity α4β1 receptor complex for fibronectin, CS-1, or LDV minimal peptides [1]: 0.1 µg/mL

monoclonal antibody P4C10
Adhesion (cpm), Jurkat (T) on HUVE monolayers, +IL-1β; SP2 control 372159 [1]: 230000 cpm
Adhesion (cpm), Jurkat (T) on HUVE monolayers, Basal; SP2 control 83924 [1]: 36900 cpm
Adhesion (cpm), LAD (B) on HUVE monolayers, +IL-1β; SP2 control 104672 [1]: 52600 cpm
Adhesion (cpm), LAD (B) on HUVE monolayers, Basal; SP2 control 19542 [1]: 6360 cpm
Adhesion (cpm), Ramos (B) on HUVE monolayers, +IL-1β; SP2 control 12157 [1]: 3150 cpm
Adhesion (cpm), Ramos (B) on HUVE monolayers, Basal; SP2 control 972 [1]: 604 cpm

rsa-A13: A13 peptide conjugated to rabbit serum albumin (DELPQLVTLPHPN; also: conjugated to rabbit serum albumin)
Molar Concentration (nM) required for 50% adhesion of Jurkat cells (Jurkat cells): No Adhesion

rsa-LDV: LDV conjugated to rabbit serum albumin (Leu-Asp-Val; also: conjugated to rabbit serum albumin)
EC50 (Jurkat cells; read-out: Molar Concentration (nM) required for 50% adhesion of Jurkat cells): > 2000 nM

B1: CS-1 peptide (peptide)
peptide: DELPQLVTLPHPNLHGPEILDVPST
notes: Free peptide; also called peptide 344; synthetic CS-1
Adhesion (cpm), Jurkat (T) on HUVE, +IL-1β; no peptide 314848 (integrin receptor α4β1 [2]): 249000 cpm
Adhesion (cpm), Jurkat (T) on HUVE, Basal; no peptide 161092 (integrin receptor α4β1 [2]): 82400 cpm
Adhesion (cpm), LAD (B) on HUVE, +IL-1β; no peptide 71408 (integrin receptor α4β1 [2]): 51600 cpm
Adhesion (cpm), LAD (B) on HUVE, Basal; no peptide 44860 (integrin receptor α4β1 [2]): 23000 cpm
Adhesion (cpm), Ramos (B) on HUVE, +IL-1β; no peptide 12936 (integrin receptor α4β1 [2]): 5160 cpm
Adhesion (cpm), Ramos (B) on HUVE, Basal; no peptide 2724 (integrin receptor α4β1 [2]): 1840 cpm
IC50 (integrin receptor α4β1 [3]): 180 µM
Adhesion (cpm), Jurkat (T) on HUVE, +IL-1β; unrelated peptide 293(A) 129864 (integrin receptor α4β1 [4]): 75800 cpm
Adhesion (cpm), LAD (B) on HUVE, +IL-1β; unrelated peptide 293A 74096 (integrin receptor α4β1 [4]): 26200 cpm
Adhesion (cpm), Ramos (B) on HUVE, +IL-1β; unrelated peptide 293A 11132 (integrin receptor α4β1 [4]): 2830 cpm

B2: VPST peptide (peptide)
peptide: VPST
Adhesion (cpm), Jurkat (T) on HUVE, +IL-1β; no peptide 314848 (integrin receptor α4β1 [2]): 322000 cpm
Adhesion (cpm), Jurkat (T) on HUVE, Basal; no peptide 161092 (integrin receptor α4β1 [2]): 204000 cpm
Adhesion (cpm), LAD (B) on HUVE, +IL-1β; no peptide 71408 (integrin receptor α4β1 [2]): 98900 cpm
Adhesion (cpm), LAD (B) on HUVE, Basal; no peptide 44860 (integrin receptor α4β1 [2]): 38200 cpm
Adhesion (cpm), Ramos (B) on HUVE, +IL-1β; no peptide 12936 (integrin receptor α4β1 [2]): 15300 cpm
Adhesion (cpm), Ramos (B) on HUVE, Basal; no peptide 2724 (integrin receptor α4β1 [2]): 4170 cpm
Adhesion (cpm), Jurkat (T) on HUVE, +IL-1β; unrelated peptide 293(A) 129864 (integrin receptor α4β1 [4]): 128000 cpm
Adhesion (cpm), LAD (B) on HUVE, +IL-1β; unrelated peptide 293A 74096 (integrin receptor α4β1 [4]): 42700 cpm
Adhesion (cpm), Ramos (B) on HUVE, +IL-1β; unrelated peptide 293A 11132 (integrin receptor α4β1 [4]): 4570 cpm

B3: GPEILDVPST peptide (peptide)
peptide: GPEILDVPST
notes: also called peptide 354
IC50 (integrin receptor α4β1 [3]): 450 µM
Adhesion (cpm), Jurkat (T) on HUVE, +IL-1β; unrelated peptide 293(A) 129864 (integrin receptor α4β1 [4]): 89700 cpm
Adhesion (cpm), LAD (B) on HUVE, +IL-1β; unrelated peptide 293A 74096 (integrin receptor α4β1 [4]): 27200 cpm
Adhesion (cpm), Ramos (B) on HUVE, +IL-1β; unrelated peptide 293A 11132 (integrin receptor α4β1 [4]): 2260 cpm

B4: RGDS peptide (peptide)
peptide: RGDS
Adhesion (cpm), Jurkat (T) on HUVE, +IL-1β; no peptide 314848 (integrin α5β1): 358000 cpm
Adhesion (cpm), Jurkat (T) on HUVE, Basal; no peptide 161092 (integrin α5β1): 299000 cpm
Adhesion (cpm), LAD (B) on HUVE, +IL-1β; no peptide 71408 (integrin α5β1): 102000 cpm
Adhesion (cpm), LAD (B) on HUVE, Basal; no peptide 44860 (integrin α5β1): 70700 cpm
Adhesion (cpm), Ramos (B) on HUVE, +IL-1β; no peptide 12936 (integrin α5β1): 28100 cpm
Adhesion (cpm), Ramos (B) on HUVE, Basal; no peptide 2724 (integrin α5β1): 16900 cpm

B5: B12 peptide (peptide)
peptide: LHGPEILDVPST
notes: also called CS-1-B12
IC50 (integrin receptor α4β1 [3]): 400 µM

B6: EILDV peptide (peptide)
peptide: EILDV
IC50 (integrin receptor α4β1 [3]): 660 µM
